Laboratory results published in patent publication US20170137855A1, “RECOMBINANT CELLS AND METHODS FOR NONPHOSPHORYLATIVE METABOLISM” (REGENTS OF THE UNIVERSITY OF MINNESOTA, priority 2015, published 2017).
Changes are numbered by the printed parent chain. Names and notes keep the numbering of the source.

What was measured:
[1] = substrate: O=C(O)C(=O)C[C@H](O)CO; assay: 2-ketoacid decarboxylase Kivd wild type, coupled assay, NADPH oxidation at 340 nm; assay type: biochemical; settings: other: wild type; BTO substrate; pH 7.5; 30.0 °C
Protocol: (§1) 2-Ketoacid decarboxylase (Kivd) and alcohol dehydrogenase (YqhD): The decarboxylase activity of Kivd was measured by a coupled enzymatic assay with AraC, AraD, and YqhD (Zhang et al., 2011. ChemSusChem 4:1068-1070). Excess AraC, AraD, and YqhD was used and the oxidation of NADPH was monitored at 340 nm. The assay mixture contained 1 mM NADPH, 1 μM AraC, 1 μM AraD, and 100 nM YqhD and 0.1-10 mM L-arabonate in assay buffer (100 mM Tris-HCl buffer, pH 7.5, 5 mM MgSO4, 0.5 mM ThDP) with a total volume of 0.1 ml. The mixture was incubated at 30° C. for one hour and 10 nM Kivd was added. The dehydrogenase activity of YqhD was assayed according to NADPH initial consumption rates in a coupled assay. The assay mixture contained 1 mM NADPH, 100 nM Kivd, 1 μM AraC, 1 μM AraD, and 0.1-10 mM L-arabonate in 100 μl of 100 mM Tris-HCl buffer (pH 7.5) with 5 mM MgSO4. The mixture was first incubated at 30° C. for one hour. Afterwards, 10 nM YqhD was added and the NADPH consumption rate was monitored.

[2] = substrate: O=CCCC(=O)C(=O)O; assay: as above; assay type: biochemical; settings: other: coupled assay, substrate from 0.1-10 mM L-arabonate, 1 mM NADPH, 0.5 mM ThDP, pH 7.5, 10 nM Kivd, 30.0 °C
Protocol: as §1

[3] = substrate: O=C(O)C(=O)C[C@H](O)CO; assay: 2-ketoacid decarboxylase Kivd V461I mutant, coupled assay, NADPH oxidation at 340 nm; assay type: biochemical, Lactococcus lactis; settings: other: V461I mutant; BTO substrate; pH 7.5; 30.0 °C
Protocol: as §1

[4] = substrate: O=CCCC(=O)C(=O)O; assay: as above; assay type: biochemical, Lactococcus lactis; settings: other: V461I mutant, coupled assay, pH 7.5, 30.0 °C
Protocol: as §1

B1: Lactococcus lactis 2-ketoacid decarboxylase Kivd, wild type (Lactococcus lactis subsp. lactis) (protein)
chain: MYTVGDYLLDRLHELGIEEIFGVPGDYNLQFLDQIISHKDMKWVGNANELNASYMADGYARTKKAAAFLTTFGVGELSAVNGLAGSYAENLPVVEIVGSPTSKVQNEGKFVHHTLADGDFKHFMKMHEPVTAARTLLTAENATVEIDRVLSALLKERKPVYINLPVDVAAAKAEKPSLPLKKENSTSNTSDQEILNKIQESLKNAKKPIVITGHEIISFGLEKTVTQFISKTKLPITTLNFGKSSVDEALPSFLGIYNGTLSEPNLKEFVESADFILMLGVKLTDSSTGAFTHHLNENKMISLNIDEGKIFNERIQNFDFESLISSLLDLSEIEYKGKYIDKKQEDFVPSNALLSQDRLWQAVENLTQSNETIVAEQGTSFFGASSIFLKSKSHFIGQPLWGSIGYTFPAALGSQIADKESRHLLFIGDGSLQLTVQELGLAIREKINPICFIINNDGYTVEREIHGPNQSYNDIPMWNYSKLPESFGATEDRVVSKIVRTENEFVSVMKEAQADPNRMYWIELILAKEGAPKVLKKMGKLFAEQNKS
notes: also expressed from pBDO-5 in E. coli fermentation (A5)
kcat/Km [1]: 7700 M⁻¹ s⁻¹ | Km [2]: 4.8 mM | kcat [2]: 4.8 s⁻¹

B2: Lactococcus lactis 2-ketoacid decarboxylase Kivd variant V461I (Lactococcus lactis subsp. lactis; V461I) (protein)
chain: B1 chain with V461I
notes: coupled with AraC/AraD/YqhD
kcat/Km [3]: 500 M⁻¹ s⁻¹ | kcat/Km [4]: 2500 M⁻¹ s⁻¹
